Results as given in EP1536230A1, “Flow cytometric, particle-based binding assay” (Deutsches Rheuma-Forschungszentrum Berlin, priority 2003, dated 2005).
Where no end group is shown, it is not given here. The star is where a group is joined. Biotin = O=C1N[C@H]2[C@H](CS[C@H]2CCCCC(=O)*)N1

Tests used:
[1] = molecular target: T1, Rekombinantes menschliches CaN (Homo sapiens, UniProt Q08209); test: Flow cytometric, particle-based binding assay: FITC-CaN bound via biotinylated peptide to streptavidin beads; details: FITC-CaN (25 nM), versus control without peptide; for mittlere Fluoreszenzintensität (Bindung von FITC-CaN über biotinyliertes Peptid an Beads): biot-VIVIT-Peptid (300 nM), Streptavidin-Beads (50000); for mittlere Fluoreszenzintensität (Bindung von FITC-CaN über NFAT-B-Peptid an Beads): biot-NFAT-B-Peptid (4µM)
T1 construct: made in house; host or cells: E. coli
Method: Der Assaypuffer war wie folgt zusammengesetzt: 25mM Tris/HCl, 3mM MgCl2, 1mM EGTA, 0,5mM DTT oder TCEP, pH 7,4. Wenn nicht anders angegeben, wurde der Assaypuffer noch mit 0,05% BSA (PAA laboratories) versetzt.
Rekombinantes menschliches CaN wurde in Boratpuffer aufgenommen und mit FITC (Sigma) in einem molaren Verhältnis von 1:12 für 1h auf Eis und vor Licht geschützt inkubiert. Das ungebundenen FITC wurde dann über eine PD10 Säule (Amersham-Pharmacia) abgetrennt.
NFAT-B Peptid (4 µM) für 10 min lichtgeschützt auf Eis inkubierte, wurden 50000 beads in 10 µl Asaypuffer pipettiert. Nach weiteren 10 min Inkubation wurde das Reaktionsgemisch (110 µl) im Durchflusszytometer "FacsCalibur" (BD Biosciences) gemessen. […] Assay vorgeschaltet. Dafür wurde 1 µl Inhibitor (in DMSO) zu FITC-CaN in Assaypuffer (94 µl) pipettiert und anschließend für 30 min lichtgeschützt auf Eis belassen. Die Auswertung der Meßdaten erfolgte mit der Software CellQuest (BD Biosciences).

FITC-Ovalbumin = molecular target: T2, FITC-Ovalbumin (Gallus gallus, UniProt P01012); test: Flow cytometric, particle-based binding assay with control protein FITC-Ovalbumin (specificity); details: FITC-Ovalbumin (25 nM); biot-VIVIT-Peptid (300 nM)
T2 construct: purchased Sigma
T2 sequence (P01012 1-386): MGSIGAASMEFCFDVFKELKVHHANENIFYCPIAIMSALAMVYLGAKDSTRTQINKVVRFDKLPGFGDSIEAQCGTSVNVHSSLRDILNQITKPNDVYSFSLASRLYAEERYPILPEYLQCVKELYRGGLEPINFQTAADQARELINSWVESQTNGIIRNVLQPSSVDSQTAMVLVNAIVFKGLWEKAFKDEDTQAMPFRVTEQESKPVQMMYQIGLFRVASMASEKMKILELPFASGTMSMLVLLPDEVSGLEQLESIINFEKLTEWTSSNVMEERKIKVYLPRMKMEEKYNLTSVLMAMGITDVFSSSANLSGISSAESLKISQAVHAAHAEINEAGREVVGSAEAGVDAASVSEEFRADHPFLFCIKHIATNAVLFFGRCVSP

Row | Fluoreszenzintensität (Bindung des Kontrollproteins FITC-Ovalbumin) (FITC-Ovalbumin) | mittlere Fluoreszenzintensität (Bindung von FITC-CaN über NFAT-B-Peptid an Beads) ([1]; mit Ca2+/Calmodulin) | mittlere Fluoreszenzintensität (Bindung von FITC-CaN über NFAT-B-Peptid an Beads) ([1]; ohne Ca2+/Calmodulin) | mittlere Fluoreszenzintensität (Bindung von FITC-CaN über biotinyliertes Peptid an Beads) ([1]; listed as biot-TIVIV-Peptid) | Substance | mittlere Fluoreszenzintensität (Bindung von FITC-CaN über biotinyliertes Peptid an Beads) [1]
1 | bindet | – | – | – | GGRRKRSESSKQQKPLE [AKAP79] | bindet
2 | – | höhere mittlere Fluoreszenzintensität | höhere mittlere Fluoreszenzintensität | – | KGGFCDQYLAVPQHPYQWAK [biot-NFAT-B-Peptid] | –
3 | – | – | – | keine erhöhte Fluoreszenzintensität | biotinyl-EEHPGTIVIVPHPGAMG (Biotin-EEHPGTIVIVPHPGAMG) [biot-TIVIV] | nicht mit biot-TIVIV eine erhöhte Fluoreszenzintensität
